{"source": "patent US20180208658A1", "about": "(EUREKA THERAPEUTICS, published 2018)", "key": {"[1]": {"target": "T1, mouse AFP158 peptide/HLA-A*02:01 complex on T2 cells (human; mouse)", "T1 construct": "also called mouse AFP158-loaded T2 cells", "assay": "FACS, phage clone on peptide-loaded T2 cells"}, "[2]": {"target": "T2, AFP158/HLA-A*02:01 complex presented on cells (human)", "T2 construct": "the cell line used is named under assay in each row; also called AFP158-loaded T2 cells; human AFP158-loaded T2 cells", "assay": "FACS, phage clone on peptide-loaded T2 cells"}, "[3]": {"target": "T3, hAFP158 A8 peptide (…)/HLA-A*02:01 on T2 cells (human)", "T3 construct": "also called Ala Position 8", "assay": "FACS, scFv phage clone on peptide-loaded T2 cells", "method": "(§1) Antibody phage clones were then tested for binding to these peptide-loaded T2 cells by FACS analysis."}, "[4]": {"target": "T4, hAFP158 A1 peptide (…)/HLA-A*02:01 on T2 cells (human)", "T4 construct": "also called Ala Position 1", "assay": "FACS, scFv phage clone on peptide-loaded T2 cells", "method": "as §1"}, "[5]": {"target": "T5, hAFP158 A4 peptide (…)/HLA-A*02:01 on T2 cells (human)", "T5 construct": "also called Ala Position 4", "assay": "FACS, scFv phage clone on peptide-loaded T2 cells", "method": "as §1"}, "[6]": {"target": "T6, hAFP158 A7 peptide (…)/HLA-A*02:01 on T2 cells (human)", "T6 construct": "also called Ala Position 7", "assay": "FACS, scFv phage clone on peptide-loaded T2 cells", "method": "as §1"}, "[7]": {"target": "T7, hAFP158 A6 peptide (…)/HLA-A*02:01 on T2 cells (human)", "T7 construct": "also called Ala Position 6", "assay": "FACS, scFv phage clone on peptide-loaded T2 cells", "method": "as §1"}, "[8]": {"target": "T8, hAFP158 A3 peptide (…)/HLA-A*02:01 on T2 cells (human)", "T8 construct": "also called Ala Position 3", "assay": "FACS, scFv phage clone on peptide-loaded T2 cells", "method": "as §1"}, "[9]": {"target": "T2, AFP158/HLA-A*02:01 complex presented on …", "assay": "FACS, scFv phage clone on peptide-loaded T2 cells", "method": "as §1"}, "[10]": {"target": "T9, hAFP158 A5 peptide (…)/HLA-A*02:01 on T2 cells (human)", "T9 construct": "also called Ala Position 5", "assay": "FACS, scFv phage clone on peptide-loaded T2 cells", "method": "as §1"}, "[11]": {"target": "T10, HLA-A*02:01 on T2 cells with β2M but without peptide loaded (human)", "T10 construct": "control without added peptide; also called β2M-loaded T2 cells", "assay": "FACS of scFv phage on β2M-loaded T2 cells without peptide", "method": "(§2) Specific and unique clones were further tested for their binding to HLA-A2/peptide complexes on live cell surfaces by flow cytometry (FACS analysis) using AFP158-loaded live T2 cells. T2 cells loaded with different peptides and β2M were first stained with purified scFv phage clones, followed by staining with a mouse anti-M13 mAb, and finally the R-PE conjugated horse anti-mouse IgG from Vector Labs. Each step of the staining was done between 30-60 minutes on ice and the cells were washed twice between staining."}, "[12]": {"target": "T2, AFP158/HLA-A*02:01 complex presented on …", "assay": "FACS of scFv phage on AFP158 peptide-loaded T2 cells, anti-M13 mAb and R-PE anti-mouse IgG", "method": "as §2"}, "[13]": {"target": "T11, hTERT540 peptide (…)/HLA-A*02:01 on T2 cells (human)", "T11 construct": "control peptide-MHC; also called β2M/hTERT peptide-loaded T2 cells", "assay": "FACS of scFv phage on hTERT peptide-loaded T2 cells", "method": "as §2"}, "recombinant AFP protein": {"target": "T12, recombinant AFP protein (UniProt P02771 19-609, limits assumed)", "T12 construct": "also called AFP recombinant protein", "T12 sequence (looked up)": "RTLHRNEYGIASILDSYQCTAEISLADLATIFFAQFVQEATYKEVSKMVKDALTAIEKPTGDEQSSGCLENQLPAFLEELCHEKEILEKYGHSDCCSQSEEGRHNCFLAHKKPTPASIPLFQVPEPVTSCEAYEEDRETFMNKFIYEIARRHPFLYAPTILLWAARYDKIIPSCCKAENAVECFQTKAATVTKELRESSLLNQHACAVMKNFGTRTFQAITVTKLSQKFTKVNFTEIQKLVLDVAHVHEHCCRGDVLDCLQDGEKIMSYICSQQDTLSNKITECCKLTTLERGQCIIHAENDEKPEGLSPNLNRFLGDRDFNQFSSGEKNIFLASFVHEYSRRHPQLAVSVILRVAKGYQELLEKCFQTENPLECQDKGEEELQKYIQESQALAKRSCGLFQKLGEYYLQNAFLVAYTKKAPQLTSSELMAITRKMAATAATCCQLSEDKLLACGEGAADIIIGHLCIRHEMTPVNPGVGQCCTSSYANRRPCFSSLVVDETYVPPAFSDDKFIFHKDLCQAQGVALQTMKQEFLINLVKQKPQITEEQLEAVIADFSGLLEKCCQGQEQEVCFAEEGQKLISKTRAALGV", "assay": "ELISA on AFP protein coated at 2 µg/mL", "method": "Antibodies were tested at 3× serial dilution, starting from 100 ng/mL, for a total of 8 concentrations. Biotinlyated AFP158/A*02:01 MHC was coated onto streptavidin plates at 2 μg/mL, AFP protein was coated at 2 μg/mL and AFP158 peptide was coated at 40 ng/mL."}, "[14]": {"target": "T1, mouse AFP158 peptide/HLA-A*02:01 …", "assay": "FACS of scFv phage on mouse AFP158 peptide-loaded T2 cells"}}, "data": [{"binder": "AFP158/HLA-A*02:01-specific scFv phage clone #17 (scFv, V domains shown) VH: EVQLVQSGAEVKKPGASVKVSCKASGYTFTSYGISWVRQAPGQGLEWMGWISAYNGNTNYAQKLQGRVTMTTDTSTSTAYMELRSLRSDDTAVYYCARYQDWWYLGQFDQWGQGTLVTVSS VL: QSALTQPASVSGSPGQSITISCTATGSDVGVYYYVSWYQQHPGKAPKVMIYDVGNRPPGVSNRFSGSKSGNTASLTISGLQAEDEADYYCASYTNRNSLGYVFGTGTKVTVLG", "values": [{"measurement": "binding result", "setting": "[1]", "result": "binds"}, {"measurement": "binding result", "setting": "[2]", "result": "binds"}]}, {"binder": "AFP158/HLA-A*02:01-specific scFv phage clone #17-13 (scFv, V domains shown, also called AM1402-17-13) VH: EVQLVQSGAEVKKPGASVKVSCKASGYTFTSYGISWVRQAPGQGLEWMGWISAYNGNTNYAQKLQGRVTMTTDTSTSTAYMELRSLRSDDTAVYYCARFQDWWYLGQFDQWGQGTLVTVSS VL: QSALTQPASVSGSPGQSITISCTATGSDVGVYYYVSWYQQHPGKAPKVMIYDVDNRPPGVSNRFSGSKSGNTASLTISGLQAEDEADYYCASYTNRNSLGYVFGTGTKVTVLG", "values": [{"measurement": "FACS binding signal (name and unit not given)", "setting": "[3]", "result": 43200}, {"measurement": "FACS binding signal (name and unit not given)", "setting": "[4]", "result": 55600}, {"measurement": "FACS binding signal (name and unit not given)", "setting": "[5]", "result": 50800}, {"measurement": "FACS binding signal (name and unit not given)", "setting": "[6]", "result": 572}, {"measurement": "FACS binding signal (name and unit not given)", "setting": "[7]", "result": 28800}, {"measurement": "FACS binding signal (name and unit not given)", "setting": "[8]", "result": 2910}, {"measurement": "FACS binding signal (name and unit not given)", "setting": "[9]", "result": 83300}, {"measurement": "FACS binding signal (name and unit not given)", "setting": "[10]", "result": 1500}]}, {"binder": "AFP158/HLA-A*02:01-specific scFv phage clone #33 (scFv, V domains shown) VH: QVQLQQSGPGLVKPSQTLSLTCAISGDSVSSNSAAWNWIRQSPSRGLEWLGRTYYRSKWYNDYAVSVKSRITINPDTSKNQFSLQLNSVTPEDTAVYYCARGSYYSGRYDAWGQGTLVTVSS VL: NFMLTQPHSVSESPGKTVTISCTRSSGSIASNYVQWYQQRPGSSPTTVIYEDNQRPSGVPDRFSGSIDSSSNSASLTISGLKTEDEADYYCQSYDSSTVVFGGGTKLTVLG", "values": [{"measurement": "binding result", "setting": "[11]", "result": "no binding"}, {"measurement": "binding result", "setting": "[1]", "result": "binds"}, {"measurement": "binding result", "setting": "[12]", "result": "binds"}, {"measurement": "binding result", "setting": "[13]", "result": "no binding"}]}, {"binder": "AFP158/HLA-A*02:01-specific scFv phage clone #48 (scFv, V domains shown) VH: EVQLVESGGGLVQPGRSLRLSCAASGFTFDDYAMHWVRQAPGKGLEWVSGISWNSGRIGYADSVKGRFTISRDNAKNSLYLQMNSLRAEDTAVYYCARADDYGAPYYYYGMDVWGQGTTVTVSS VL: QSVLTQPPSVSGAPGQRVTISCTGSSSNIGAGYDVHWYQQLPGTAPKLLIYGNSNRPSGVPDRFSGSKSGTSASLAITGLQAEDEADYYCQSYDSSLSGSVFGTGTKVTVLG", "values": [{"measurement": "binding result", "setting": "[11]", "result": "no binding"}, {"measurement": "binding result", "setting": "[1]", "result": "binds"}, {"measurement": "binding result", "setting": "[12]", "result": "binds"}, {"measurement": "binding result", "setting": "[13]", "result": "no binding"}]}, {"binder": "full-length AFP158 mouse chimeric IgG1 antibody 1402-79 (antibody, V domains shown, bivalent IgG) VH: QMQLVQSGGGLVQPGRSLRLSCAASGFTFDDYAMHWVRQAPGKGLEWVSGISWNSGSIGYADSVKGRFTISRDNAKNSLYLQMNSLRAEDTALYYCAKDIHSGSYYGLLYYAMDVWGQGTTVTVSS VL: QSVLTQPPSVSGAPGQRVTISCTGSSSNIGAGYDVHWYQQLPGTAPKLLIFGNSNRPSGVPDRFSGFKSGTSASLAITGLQAEDEADYFCQSYDSSLSGSGVFGTGTKVTVLG", "values": [{"measurement": "binding result", "setting": "recombinant AFP protein", "result": "no binding (tested: 100 ng/mL)"}]}, {"binder": "#44 (scFv, V domains shown, not shown: large carriers; small tags and cut ends, also called Clone 44; AFP158/HLA-A*02:01-specific scFv phage clone #44; copies: 1 + 1) VH: QVQLVQSGAEVKKPGSSVKVSCKASGGTFSSYAISWVRQAPGQGLEWMGGIIPIFGTANYAQKFQGRVTITADESTSTAYMELSSLRSEDTAVYYCAREIRGYYYYYGMDVWGQGTTVTVSS VL: SYELTQPPSVSVAPGKTARITCGGDNIGTKSVTWYQQRPGQAPMMVIYYDTVRPSGIPERLSGSNSGNTATLTITRVEAGDEADYYCQVWDSSSDHPVFGGGTKLTVL", "values": [{"measurement": "binding result", "setting": "[11]", "result": "no binding"}, {"measurement": "binding result", "setting": "[12]", "result": "binds"}, {"measurement": "binding result", "setting": "[14]", "result": "no binding"}, {"measurement": "binding result", "setting": "[13]", "result": "no binding"}]}, {"binder": "#50 (scFv, V domains shown, not shown: large carriers; small tags and cut ends, also called Clone 50; AFP158/HLA-A*02:01-specific scFv phage clone #50; copies: 1 + 1) VH: QVQLQESGPGLVKPSGTLSLTCAVSGGSISSSNWWSWVRQPPGKGLEWIGEIYHSGSTNYNPSLKSRVTISVDKSKNQFSLKLSSVTAADTAVYYCATGYGGYFDYWGQGTLVTVSS VL: QSVLTQPPSVSVAPGKTARITCGGNNIGSKSVHWYQQKPGQAPVLVIYYDSDRPSGIPERFSGSNSGNTATLTISRVEAGDEADYYCQVWDSSSDHVVFGGGTKLTVL", "values": [{"measurement": "binding result", "setting": "[11]", "result": "no binding"}, {"measurement": "binding result", "setting": "[12]", "result": "binds"}, {"measurement": "binding result", "setting": "[13]", "result": "no binding"}]}, {"binder": "full-length AFP158 mouse chimeric IgG1 antibody 1402-76 (antibody, V domains shown, bivalent IgG) VH: EVQLVESGGGLVKPGGSLRLSCAASGFTFSNAWMSWVRQAPGKGLEWVGFIRSKAYGGTTEYAASVKGRFTISRDDSKSIAYLQMNNLKTEDTAVYYCARDGLYSSSWYDSDYWGQGTLVTVSS VL: QSVVTQPPSVSAAPGQKVTISCSGSSSNIGNNYVSWYQQLPGTAPKLLIYDNNKRPSGIPDRFSGSKSGTSATLGITGLQTGDEADYYCGTWDGSLYTMLFGGGTKLTVLG", "values": [{"measurement": "binding result", "setting": "recombinant AFP protein", "result": "no binding (tested: 100 ng/mL)"}]}, {"binder": "full-length AFP158 mouse chimeric IgG1 antibody 1402-61 (antibody, V domains shown, bivalent IgG) VH: EVQLVQSGAEVKKPGESLTISCKASGYSFPNYWITWVRQMSGGGLEWMGRIDPGDSYTTYNPSFQGHVTISIDKSTNTAYLHWNSLKASDTAMYYCARYYVSLVDIWGQGTLVTVSS VL: QSVLTQPASVSGSPGQSITISCTGTSSDVGGYNYVSWYQQHPGKAPKLMIYDVNNRPSEVSNRFSGSKSGNTASLTISGLQAEDEADYYCSSYTTGSRAVFGGGTKLTVLG", "values": [{"measurement": "binding result", "setting": "recombinant AFP protein", "result": "no binding (tested: 100 ng/mL)"}]}]}
